Reference: patent US20240417437A1, “Linker Polypeptides” (Trutino Biosciences Inc., priority 2021, published 2024)
Where no end group is shown, it is not given here. The star is where a group is joined. EDANS = O=S(=O)(O)c1cccc2c(NCCN*)cccc12

Assays:
[1] = biological target: biotin-labelled collagen IV (Prospec); assay: EDANS peptide (20 µM) on biotin-collagen IV-coated streptavidin magnetic beads, fluorescence Ex 340/Em 490, pH 7.5
[2] = biological target: collagen cross-linked to agarose (Sigma); assay: collagen-agarose pulldown, anti-mouse IL-2 immunoblot, band intensity of the collagen-bound lane (Input (2%) band: 16707)
[3] = biological target: collagen cross-linked to agarose (Sigma); assay: collagen-agarose pulldown, anti-mouse IL-2 immunoblot, band quantitation
[4] = biological target: collagen cross-linked to agarose (Sigma); assay: pulldown with collagen-agarose, immunoblot quantified with iBright imaging system; reference Construct B
[5] = biological target: collagen cross-linked to agarose (Sigma); assay: collagen-agarose pulldown, anti-mouse IL-2 immunoblot, band intensity of the collagen-bound lane (Input (2%) band: 15267)
[6] = biological target: collagen cross-linked to agarose (Sigma); assay: pulldown with collagen-agarose, immunoblot quantified with iBright imaging system

Row | RFU [1] | Bound (% input) [3] | Binder | also measured
1 | 490 RFU | – | GGGSGLHERHLNNN-{EDANS} [Peptide 15 (…-*, linker peptide with collagen I targeting sequence)] | –
2 | 4560 RFU | – | KLWVLPKGPLGVRG-{EDANS} [Peptide 14 (…-*, next generation MMP cleavable linker with collagen IV targeting sequence)] | –
3 | – | 0.3 % of input | Construct B - no TME: mIL2-2x(SG4)-MMPcs1-2x(G4S)-mIL2Ralpha(1-215)-mIgG1Fc (Fc fusion) APTSSSTSSSTAEAQQQQQQQQQQQQHLEQLLMDLQELLSRMENYRNLKLPRMLTFKFYLPKQATELKDLQCLEDELGPLRHVLDLTQSKSFQLEDAENFISNIRVTVVKLKGSDNTFECQFDDESATVVDFLRRWIAFCQSIISTSPQSGGGGSGGGGGPLGVRGGGGGSGGGGSELCLYDPPEVPNATFKALSYKNGTILNCECKRGFRRLKELVYMRCLGNSWSSNCQCTSNSHDKSRKQVTAQLEHQKEQQTTTDMQKPTQSMHQENLTGHCREPPPWKHEDSKRIYHFVEGQSVHYECIPGYKALQRGPAISICKMKCGKTGWTQPQLTCVDEREHHRFLASEESQGSRNSSPESETSCPITTTDFPQPTETTAMTETFVLTMEYKGCKPCICTVPEVSSVFIFPPKPKDVLTITLTPKVTCVVVDISKDDPEVQFSWFVDDVEVHTAQTQPREEQFNSTFRSVSELPIMHQDWLNGKEFKCRVNSAAFPAPIEKTISKTKGRPKAPQVYTIPPPKEQMAKDKVSLTCMITDFFPEDITVEWQWNGQPAENYKNTQPIMDTDGSYFVYSKLNVQKSNWEAGNTFTCSVLHEGLHNHHTEKSLSHSPGK | Bound [2]: 2310
4 | – | 0.7 % of input | Construct GG (collagen IV): mIL2-SGG-KLWVLPK(SEQ ID NO: 200)-MMPcs1-2x(G4S)-mIL2Ra(1-215)-muIgG1Fc (Fc fusion) APTSSSTSSSTAEAQQQQQQQQQQQQHLEQLLMDLQELLSRMENYRNLKLPRMLTFKFYLPKQATELKDLQCLEDELGPLRHVLDLTQSKSFQLEDAENFISNIRVTVVKLKGSDNTFECQFDDESATVVDFLRRWIAFCQSIISTSPQSGGKLWVLPKGPLGVRGGGGGSGGGGSELCLYDPPEVPNATFKALSYKNGTILNCECKRGFRRLKELVYMRCLGNSWSSNCQCTSNSHDKSRKQVTAQLEHQKEQQTTTDMQKPTQSMHQENLTGHCREPPPWKHEDSKRIYHFVEGQSVHYECIPGYKALQRGPAISICKMKCGKTGWTQPQLTCVDEREHHRFLASEESQGSRNSSPESETSCPITTTDFPQPTETTAMTETFVLTMEYKGCKPCICTVPEVSSVFIFPPKPKDVLTITLTPKVTCVVVDISKDDPEVQFSWFVDDVEVHTAQTQPREEQFNSTFRSVSELPIMHQDWLNGKEFKCRVNSAAFPAPIEKTISKTKGRPKAPQVYTIPPPKEQMAKDKVSLTCMITDFFPEDITVEWQWNGQPAENYKNTQPIMDTDGSYFVYSKLNVQKSNWEAGNTFTCSVLHEGLHNHHTEKSLSHSPGK | fold of bound fraction over Construct B [4]: 2.5 fold; Bound [5]: 5190; fraction bound (of input) [6]: < 1 % of input
5 | 297 RFU | – | GGGSGGGGPLGVRG-{EDANS} [P1] | –
